This is an account of results in patent US8728980B2, “Peptide microarray and method of use” (The Regents of the University of California, priority 2011, dated 2014).

The test concerns the target T1, Polycomb protein chromodomain (Drosophila melanogaster, UniProt P26017).
T1 construct: The chromodomain (a.a. 1-90) of Polycomb protein was expressed as GST-tagged fusion protein; made in house
T1 sequence (P26017 1-90): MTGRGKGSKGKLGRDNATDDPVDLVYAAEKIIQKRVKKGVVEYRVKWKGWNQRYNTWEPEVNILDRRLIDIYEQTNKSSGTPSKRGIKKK
Briefly: Peptide microarray binding of GST-tagged Polycomb chromodomain. On the set-up: dose or concentration left out as unconfirmed. The conditions noted are these: Binder if at least two of three spots pass p-value cutoff 0.001 from background. The text has this:
There are a total of 46 histone peptide sequences (9 a.a. long) with a single lysine-trimethylation site which are conserved between the human and fruit fly H2, H3 and H4 proteins (Table II). These were screened for Polycomb protein chromodomain binding by peptide microarray. Each peptide sequence was screened as triplets, and the fluorescence intensity was quantified with background subtraction individually for each spot from the microarray images by ImageJ^9 and the whole data set was fit to a mixed Gaussian distribution model (FIG. 8, Table III).
Twelve out of the 46 sequences were identified as positive binders under these criteria. Ten of these microarray-identified binders also yielded high mutation matrix score in an independent prediction (Table IV).
The chromodomain (a.a. 1-90) of Polycomb protein was expressed as GST-tagged fusion protein and purified as described in [65]. The purity of the protein was examined by SDS-PAGE electrophoresis followed by both Coomassie staining and western blot using an Anti-GST-HRP conjugate (Santa Cruz Biotechnology). The concentration of purified protein was determined by BCA assay (Amresco). A total of 46 trimethylated histone peptides were synthesized by Sigma Aldrich (desalted, mass spectrometry checked). The peptides were then printed as triplets onto glass slides (ArrayIt), together with a Cy3 marker and an anti-GST (mouse monoclonal) antibody (Thermo) as references.
The peptide microarray was rinsed with TBST buffer (25 mM Tris, 125 mM NaCl, 0.05% Tween-20, pH 8) followed by blocking with 5% non-fat milk in TBST (room temperature 1 hour or 4° C. overnight). The slide was then incubated at 4° C. with Polycomb-GST fusion protein at a final concentration of […] in 5% non-fat milk/TBST for 6 hours. After washing three times for 10 minutes each with TBST, the slide was incubated with an anti-GST mouse monoclonal IgG antibody (Thermo) at a final concentration of 1 μg/mL in 5% non-fat milk/TBST and shaken gently for 1 hour at room temperature. A secondary anti-mouse IgG Dylight-488 conjugated antibody (Thermo) was added to a final concentration of 0.1 μg/mL after three more cycles of 10 minutes washing with TBST. The slide was shaken for 1 hr at room temperature and washed three times with TBST.
The dried microarray slides were scanned using a Hamamatsu NanoZoomer 2.0HT Slide Scanning System (Neuroscience Light Microscopy Facility, UCSD). Data quantification were processed using the microarray processing software ImageJ^9, where the fluorescent intensity of a microarray spot was defined as its own intensity minus the background intensity around it on the scanned image.

Non-standard residues stand in square brackets, D forms with d. Primed or numbered codes have the meaning given here. No end group written: not given here. Me3 = trimethylation of the lysine side chain; Me3(3) = trimethyl (trimethylated lysine); Lys(Me3) = C[N+](C)(C)CCCC[C@H](N)C(=O)O

On to “APATGGVKK (not fully specified (residue 8); also: trimethylated lysine, site not given here) [9-residue histone peptide, H3_DROME, trimethylated lysine site 36]”, for which the “Array Verification” value is recorded as “NonBinder”. Turning to “APSTGGVKK (also: trimethylated Lys, site not given here) [9-residue histone peptide, H33_DROME, trimethylated lysine site 36]”, the “Array Verification” value is “NonBinder”. With “ARKSTGGKA (also: trimethylated Lys, site not given here) [9-residue histone peptide, H3_DROME, trimethylated lysine site 14]”, the “Array Verification” value is on record as “NonBinder”. On to “ASKDLKVKR (not fully specified (residue 8); also: trimethylated lysine, site not given here)”, for which the “Array Verification” value is “Binder”. As to “DNIQGITKP (DNIQGIT[Lys(Me3)]P) [9-residue histone peptide, H4_DROME, trimethylated lysine site 31]”, the “Array Verification” value was “NonBinder”. Regarding “DSGKAKAKA (not fully specified (residue 8); also: trimethylated lysine, site not given here)”, the “Array Verification” value is recorded as “Binder”. Regarding EELDSLIKA (EELDSLI[Lys(Me3)]A), the “Array Verification” value is recorded as “NonBinder”.

In the case of “EETRGVLKV (EETRGVL[Lys(Me3)]V) [9-residue histone peptide, H4_DROME, trimethylated lysine site 59]”, the “Array Verification” value is “NonBinder”.

Regarding “EGTKAVTKY (also: trimethylated Lys, site not given here)”, the “Array Verification” value was “Binder”.

Turning to ELAGNASKD (ELAGNASK(Me3(3))D), the “Array Verification” value is reported as “NonBinder”. For the sequence “GGAKRHRKV (also: trimethylated lysine, site not given here) [9-residue histone peptide, H4_DROME, trimethylated lysine site 20]”, the “Array Verification” value is listed as “Binder”. Then “GKDSGKAKA (not fully specified (residue 8); also: trimethylated lysine, site not given here)”, with “NonBinder”; and “GLGKGGAKR [9-residue histone peptide, H4_DROME, trimethylated lysine site 16]”, with “NonBinder”.

With “GNAARDNKK (also: trimethylated Lys, site not given here)”, the “Array Verification” value is “NonBinder”. Next, “GNASKDLKV (not fully specified (residue 8); also: trimethylated lysine, site not given here)”: “NonBinder”; GRIHRHLKS (GRIHRHLK(Me3(3))S): “Binder”. As to GVIPHIHKS (GVIPHIHK(Me3(3))S), the “Array Verification” value is “NonBinder”.

As to HAVSEGTKA (HAVSEGTK(Me3(3))A), the “Array Verification” value was “NonBinder”. Next, “IHKSLIGKK (not fully specified (residue 8); also: trimethylated lysine, site not given here)”: “NonBinder”; “IQAVLLPKK (not fully specified (residue 8); also: trimethylated lysine, site not given here)”: “Binder”. Consider “IYIYKVLKQ (also: trimethylated Lys, site not given here)”, for which the “Array Verification” value is listed as “NonBinder”. Next, “KAGKDSGKA (not fully specified (residue 8); also: trimethylated lysine, site not given here)”: “NonBinder”; “KGGKGLGKG (not fully specified (residue 8); also: trimethylated lysine, site not given here) [9-residue histone peptide, H4_DROME, trimethylated lysine site 12]”: “NonBinder”; “KRVTIMPKD (not fully specified (residue 8); also: trimethylated lysine, site not given here) [9-residue histone peptide, H3_DROME, trimethylated lysine site 122]”: “NonBinder”. Consider “LARRGGVKR (LARRGGVK(Me3(3))R) [9-residue histone peptide, H4_DROME, trimethylated lysine site 44]”, for which the “Array Verification” value is given as “NonBinder”. For the sequence LLPGELAKH (LLPGELAK(Me3(3))H), the “Array Verification” value is on record as “NonBinder”. On to “MAGGKAGKD (not fully specified (residue 8); also: trimethylated lysine, site not given here)”, for which the “Array Verification” value is given as “NonBinder”.

As for “MDVVYALKR (MDVVYALK(Me3(3))R) [9-residue histone peptide, H4_DROME, trimethylated lysine site 91]”, the “Array Verification” value was “Binder”. “NAARDNKKT (also: trimethylated Lys, site not given here)”: the “Array Verification” value is reported as “NonBinder”. Turning to “NLCAIHAKR (NLCAIHAK(Me3(3))R) [9-residue histone peptide, H3_DROME, trimethylated lysine site 115]”, the “Array Verification” value is “NonBinder”. Take “PATGGVKKP (not fully specified (residue 8); also: trimethylated lysine, site not given here) [9-residue histone peptide, H3_DROME, trimethylated lysine site 37]”: the “Array Verification” value is reported as “NonBinder”. On to PDTGISSKA (PDTGISSK(Me3(3))A), for which the “Array Verification” value is recorded as “NonBinder”. Consider “PRKQLATKA (PRKQLATK(Me3)A) [9-residue histone peptide, H3_DROME, trimethylated lysine site 23]”, for which the “Array Verification” value is listed as “Binder”. Turning to “PSTGGVKKP (also: trimethylated Lys, site not given here) [9-residue histone peptide, H33_DROME, trimethylated lysine site 37]”, the “Array Verification” value is on record as “NonBinder”. Consider QAVLLPKKT (QAVLLPKK(Me3)T), for which the “Array Verification” value is “NonBinder”. As for “REIAQDFKT (REIAQDFK(Me3(3))T) [9-residue histone peptide, H3_DROME, trimethylated lysine site 79]”, the “Array Verification” value is recorded as “NonBinder”. For “REIRRYQKS (REIRRYQK(Me3(3))S) [9-residue histone peptide, H3_DROME, trimethylated lysine site 56]”, the “Array Verification” value is reported as “Binder”. With RIHRLLRKG (RIHRLLRK(Me3(3))G), the “Array Verification” value is on record as “Binder”.

As to RNDEELNKL (RNDEELNK(Me3(3))L), the “Array Verification” value is recorded as “NonBinder”. For the sequence “RTKQTARKS (also: trimethylated lysine, site not given here) [9-residue histone peptide, H3_DROME, trimethylated lysine site 9]”, the “Array Verification” value is on record as “Binder”.

As for SRLAHYNKR (SRLAHYNK(Me3(3))R), the “Array Verification” value is “NonBinder”. As for “STELLIRKL (STELLIRK(Me3(3))L) [9-residue histone peptide, H3_DROME, trimethylated lysine site 64]”, the “Array Verification” value is reported as “NonBinder”.
